Where a SMILES comes first, the peptide text is derived from it.
Experiments:
[1] = biological target: T1, IL-2Rαβ heterodimer (Homo sapiens, UniProt P01589+P14784); test: pVIII 10-mer phage screen / ELISA against IL-2Rαβ heterodimer; format: binding; settings: pVIII-bound 10-mers on phage
T1 construct: was produced in recombinant host cells in a truncated form; made in house; host or cells: recombinant host cells (baculovirus system or PIG-tailed CHO cells named as options)
T1 sequence (P01589 22-240 limits assumed): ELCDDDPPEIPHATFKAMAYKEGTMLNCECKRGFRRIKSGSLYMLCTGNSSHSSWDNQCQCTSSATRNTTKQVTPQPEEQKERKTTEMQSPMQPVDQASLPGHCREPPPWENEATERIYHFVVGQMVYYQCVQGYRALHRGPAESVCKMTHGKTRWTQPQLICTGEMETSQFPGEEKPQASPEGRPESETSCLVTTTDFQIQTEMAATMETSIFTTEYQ
T1 sequence (P14784 27-240 limits assumed): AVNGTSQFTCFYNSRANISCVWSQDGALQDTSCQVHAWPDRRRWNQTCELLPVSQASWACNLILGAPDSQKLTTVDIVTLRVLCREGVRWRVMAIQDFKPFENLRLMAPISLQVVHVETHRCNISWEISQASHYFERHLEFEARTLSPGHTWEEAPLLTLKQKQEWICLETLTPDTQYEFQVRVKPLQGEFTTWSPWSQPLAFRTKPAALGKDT
Source text: (§1) In the systems employed, the random peptides were presented either on the surface of a phage particle, as part of a fusion protein comprising either the pIII or the pVIII coat protein of a phage fd derivative (peptides on phage), or as a fusion protein with LacI bound to a plasmid (peptides on plasmids). The phage or plasmids, including the DNA encoding the peptides, were identified and isolated by an affinity enrichment process using immobilized IL-2Rα, IL-2Rβ, IL-2Rγ and the αβ heterodimer. The affinity enrichment process, sometimes called "panning", involves multiple rounds of incubating the phage or plasmids with immobilized receptor, collecting the phage or plasmids that bind to the receptor (along with the accompanying DNA), and producing more of the phage or plasmids (along with accompanying LacI-peptide fusion protein) collected.
(§2) After several rounds of affinity enrichment, the phage or plasmids and accompanying peptides were examined by ELISA to determine if the peptides bind specifically to the receptor. This assay was carried out in a manner similar to the procedures used in the affinity enrichment process, except that after removing unbound phage (or plasmids), the wells were typically treated with rabbit anti-phage antibody, then with alkaline phosphatase (AP)-conjugated goat anti-rabbit antibody, or with anti-LacI-AP, and then the amount of alkaline phosphatase in each well was determined by standard methods. By comparing test wells with control wells containing an unrelated receptor, one can determine whether a peptide binds to IL-2Rα (or IL-2Rβ, γ, αβ, or βγ) specifically. Peptides found to bind specifically to the receptor were then synthesized as the free peptide (no phage) and tested for binding against (1) immobilized soluble receptor, (2) receptor expressed on the surface of cells, (3) the heterotrimer form of the receptor (i.e., IL-2Rαβγ) expressed on the surface of cells and (4) the two heterodimers IL-2Rαβ and IL-2Rβγ.
The immobilized receptor used in the affinity enrichment and ELISA procedures was produced in recombinant host cells in a truncated form. This truncated receptor molecule can be produced in a variety of different forms and host cells. One useful form of receptor is constructed by expressing the protein as a soluble protein in baculovirus transformed host cells using standard methods; another useful form is constructed with a signal peptide for protein secretion and for glycophospholipid membrane anchor attachment. This form of anchor attachment is called "PIG-tailing;"see Caras and Weddell, 3 Mar. 1989, Science 243:1196-1198, and Lin et al., 10 Aug. 1990, Science 249:677-679, each of which is incorporated herein by reference. Using the PIG-tailing system, one can cleave the receptor from the surface of the cells expressing receptor (e.g., transformed Chinese hamster ovary (CHO) cells selected for high level expression of receptor with a cell sorter) with phospholipase C. The cleaved receptor still comprises a carboxy terminal sequence of amino acids, called the "HPAP tail", from the signal for membrane attachment and can be immobilized without further purification.
The recombinant receptor protein was immobilized by coating the wells of microtiter plates with an anti-HPAP tail antibody, blocking with bovine serum albumin (BSA) in PBS, and then binding recombinant, truncated receptor to the antibody. Using this procedure, one should perform the immobilization reaction in varying concentrations of the receptor to determine the optimum amount for a given preparation, because different preparations of recombinant protein often contain different amounts of the desired protein. […] Otherwise, unblocked antibody can bind undesired phage during the affinity enrichment procedure. […]

[2] = biological target: T2, IL-2Rβ (Homo sapiens, UniProt P14784); test: Colony lift procedure with tagged IL-2 receptors; format: binding
T2 construct: tag (kind not specified; detected enzymatically or on X-ray film)
T2 sequence (P14784 27-240 limits assumed): T1 sequence (P14784 27-240 limits assumed)
Source text: Peptides specific for the IL-2Rα, β and γ subunits were also discovered using a "colony lift" procedure, wherein cells were infected with DNA encoding for random amino acid sequences as described above. The phage was then allowed to grow on arabinose media to induce expression of the encoded peptides. […] The filters were washed and dried, and the tagged colonies were detected enzymatically, or by exposure to X-ray film, to identify those receptors which bound to the immobilized peptide-expressing phage particles.
Sequences which bound to IL-2Rβ have the general sequence RDCSX81AX82 LGELC, wherein X81 is V, E or D; and X82 is V or A. Preferred sequences are […], […] (SEQ ID NO: ), and […] (SEQ ID NO: ).

[3] = biological target: T3, βγ-subunit (Homo sapiens, UniProt P14784+P31785); test: Phage-ELISA competition with phage bearing peptides, βγ-subunit; format: binding; settings: phage-ELISA assay
T3 construct: was produced in recombinant host cells in a truncated form; made in house; host or cells: recombinant host cells (not fixed)
T3 sequence (P14784 27-240 limits assumed): T1 sequence (P14784 27-240 limits assumed)
T3 sequence (P31785 23-262 limits assumed): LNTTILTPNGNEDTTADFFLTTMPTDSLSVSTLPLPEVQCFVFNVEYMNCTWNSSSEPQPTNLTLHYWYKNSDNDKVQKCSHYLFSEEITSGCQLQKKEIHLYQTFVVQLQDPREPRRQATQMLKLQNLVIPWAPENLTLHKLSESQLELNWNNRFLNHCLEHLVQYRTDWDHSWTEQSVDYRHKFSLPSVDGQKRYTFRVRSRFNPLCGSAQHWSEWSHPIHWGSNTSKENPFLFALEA
Source text: (§3) After several rounds of affinity enrichment, the phage or plasmids and accompanying peptides were examined by ELISA to determine if the peptides bind specifically to the receptor. […] By comparing test wells with control wells containing an unrelated receptor, one can determine whether a peptide binds to IL-2Rα (or IL-2Rβ, γ, αβ, or βγ) specifically.
Random pVIII 10-mer and 11-mer libraries were also screened against immobilized IL-2Rγ monomer in a phage ELISA assay at high receptor density.

[4] = biological target: T4, immobilized IL-2Rγ monomer (Homo sapiens, UniProt P31785); test: Phage ELISA against immobilized IL-2Rγ monomer; format: binding; settings: high receptor density
T4 construct: was produced in recombinant host cells in a truncated form; made in house; host or cells: recombinant host cells (not fixed)
T4 sequence (P31785 23-262 limits assumed): T3 sequence (P31785 23-262 limits assumed)
Protocol: as §2
(§4) Random pVIII 10-mer and 11-mer libraries were also screened against immobilized IL-2Rγ monomer in a phage ELISA assay at high receptor density. […] These peptides also bound to the βγ-subunit and competed with radiolabelled ligand.

[5] = biological target: T3, βγ-subunit; test: Binding to βγ-subunit and competition with radiolabelled ligand
Source text: as §4

[6] = biological target: T5, βγ (Homo sapiens, UniProt P14784+P31785); test: Binding to βγ subunits
T5 construct: was produced in recombinant host cells in a truncated form; made in house; host or cells: recombinant host cells (not fixed)
T5 sequence (P14784 27-240 limits assumed): T1 sequence (P14784 27-240 limits assumed)
T5 sequence (P31785 23-262 limits assumed): T3 sequence (P31785 23-262 limits assumed)
Protocol: as §2

[7] = biological target: T6, αβ (Homo sapiens, UniProt P01589+P14784); test: Competition against phage-borne […], αβ heterodimer; format: binding; settings: free peptide
T6 construct: was produced in recombinant host cells in a truncated form; made in house; host or cells: recombinant host cells (baculovirus system or PIG-tailed CHO cells named as options)
T6 sequence (P01589 22-240 limits assumed): T1 sequence (P01589 22-240 limits assumed)
T6 sequence (P14784 27-240 limits assumed): T1 sequence (P14784 27-240 limits assumed)

[8] = biological target: T7, β-subunit (Homo sapiens, UniProt P14784); test: Blocking of IL-2 binding to the β-subunit
T7 construct: was produced in recombinant host cells in a truncated form; made in house; host or cells: recombinant host cells (baculovirus system or PIG-tailed CHO cells named as options)
T7 sequence (P14784 27-240 limits assumed): T1 sequence (P14784 27-240 limits assumed)

[9] = biological target: T6, αβ; test: Binding to αβ subunits
Protocol: as §2

[10] = biological target: T5, βγ; test: Competition against phage-borne […], βγ heterodimer; format: binding; settings: free peptide
[11] = biological target: T8, immobilized IL-2Rβ (Homo sapiens, UniProt P14784); test: pVIII 12-mer phage screen against immobilized IL-2Rβ; format: binding; settings: pVIII-bound 12-mers
T8 construct: was produced in recombinant host cells in a truncated form; made in house; host or cells: recombinant host cells (baculovirus system or PIG-tailed CHO cells named as options)
T8 sequence (P14784 27-240 limits assumed): T1 sequence (P14784 27-240 limits assumed)
Source text: as §1, §2

[12] = biological target: T9, IL-2Rα (Homo sapiens, UniProt P01589); test: Phage screen of αβ heterodimer in presence of β-specific peptides: specific binding to IL-2Rα
T9 construct: was produced in recombinant host cells in a truncated form; made in house; host or cells: recombinant host cells (baculovirus system or PIG-tailed CHO cells named as options)
T9 sequence (P01589 22-240 limits assumed): T1 sequence (P01589 22-240 limits assumed)
Protocol: as §2
The αβ heterodimer was screened in the presence of each of the following peptides, […] (SEQ ID NO:65), […] (SEQ ID NO:66), […] (SEQ ID NO:67), […] (SEQ ID NO:68) and […] (SEQ ID NO:69) under standard conditions. […]

[13] = biological target: T10, immobilized IL-2Rα (Homo sapiens, UniProt P01589); test: Blocking of IL-2 binding to immobilized IL-2Rα
T10 construct: was produced in recombinant host cells in a truncated form; made in house; host or cells: recombinant host cells (baculovirus system or PIG-tailed CHO cells named as options)
T10 sequence (P01589 22-240 limits assumed): T1 sequence (P01589 22-240 limits assumed)

[14] = biological target: T11, α subunit (Homo sapiens, UniProt P01589); test: Phage ELISA competition against phage-bearing […]; format: binding; settings: phage ELISA format against phage-bearing FVRCTASGCV
T11 construct: was produced in recombinant host cells in a truncated form; made in house; host or cells: recombinant host cells (baculovirus system or PIG-tailed CHO cells named as options)
T11 sequence (P01589 22-240 limits assumed): T1 sequence (P01589 22-240 limits assumed)
Source text: as §3

Compound: RYGEVGDLLP
- binding to the αβ heterodimer [1]: bound
- subunit specificity [1]: specific for the β subunit

Compound: RDCSDAVLEGLC
- binding to IL-2Rβ [2]: bound

Compound: SGCGRELDWC
- binding to the αβ heterodimer [1]: bound
- subunit specificity [1]: specific for the β subunit

Compound: WDGPGLGEFF
- binding to the αβ heterodimer [1]: bound
- subunit specificity [1]: specific for the β subunit

Compound: CGTQEACFGLL
- competition with phage bearing peptides in binding to the βγ-subunit [3]: compete
- specific binding to IL-2Rγ [4]: bind to that subunit specifically
- binding to the βγ-subunit [5]: bound
- competition with radiolabelled ligand ([5]; βγ-subunit): competed

Compound: CSCC[C@H](N)C(=O)N[C@@H](CC(=O)O)C(=O)N[C@@H](CS)C(=O)N[C@@H](CO)C(=O)N[C@@H](CCC(=O)O)C(=O)N[C@@H](C)C(=O)N[C@H](C(=O)N[C@@H](CC(C)C)C(=O)NCC(=O)N[C@@H](CCC(=O)O)C(=O)N[C@@H](CC(C)C)C(=O)N[C@@H](CS)C(=O)O)C(C)C (H-MDCSEAVLGELC-OH; N-terminus and C-terminus assumed)
- binding to βγ subunits [6]: able to bind
- competition against phage-born MDCSEAVLGELC for binding [7]: competitive
- blocking IL-2 binding to the β-subunit [8]: capable of blocking IL-2 binding
- binding to αβ subunits [9]: able to bind
- competition against phage-born MDCSEAVLGELC for binding [10]: competitive
- subunit specificity of clones [11]: β-specific

Compound: RDCSEARLGELC
- binding to IL-2Rβ [2]: bound

Compound: SVRCSASGCV
- specific binding to IL-2Rα [12]: bound specifically
- concentration at which IL-2 binding to immobilized IL-2Rα was blocked [13]: 110 µM

Compound: RDCSVAVLGELC
- binding to IL-2Rβ [2]: bound

Compound: ARYGDVGSLV
- binding to the αβ heterodimer [1]: bound
- subunit specificity [1]: specific for the β subunit

Compound: FVRCTASGCV
- competition for binding with respect to the α subunit [14]: compete for binding

Compound: RWGDVGDMVV
- binding to the αβ heterodimer [1]: bound
- subunit specificity [1]: specific for the β subunit

Compound: RACRVMPCLPDL
- subunit specificity of clones [11]: β-specific

Compound: ARSDYGLGAIWP
- subunit specificity of clones [11]: β-specific

Compound: HCLDMGCTFPVW
- subunit specificity of clones [11]: β-specific

Compound: EVICGTDGCW
- specific binding to IL-2Rα [12]: bound specifically
- concentration at which IL-2 binding to immobilized IL-2Rα was blocked [13]: 330 µM
